Biological target: PfRH5FL (full-length PfRH5 protein comprising amino acids E26–Q526) (P. falciparum (3D7 clone), UniProt Q8IFM5 26-526, T40A | T216A | T286A | T299A)
Assay: SPR
Settings: both partners purified

B1: PfP113Nt (domain or fragment)
chain: YVHNDVIKFGEENSLKCSQGNLYVLHCEVQCLNGNNEIIHKRCNDDIEKKCNGNNKCIYFFEYELRKKTQSFRNKNSIEISECVESEQNEVKTSTTCLLSNSFILDEAFIQYFFFIKNKNEEPVICKDGNINIKSALLHSPFCEIKLKDISEYIRKKCDNNKECLIDPLDVQKNLLNEEDPCYINNSYVSVNVVCNK
B1: binds.

Source: PMC6602525 (Cell, 2019)
